Test results taken from patent US20240352438A1, “MEANS AND METHODS FOR DETOXIFYING OCHRATOXIN A” (DSM Austria GmbH, priority 2021, published 2024).
Positions count from the first letter of the chain named.

B1: 249 (protein)
chain: MTTRTRILTAFLSLLAANACAADAAPAAPHTVVLRAARMFDGASGKLVDHPQLTIVGNKIVRIAQGDKAEVPAGAEVVDLGDATLLPGFIDAHVHLSGQSSDNWYGDFFDNMMRFPAEQALYGAYYARITLEAGFTSVRDVGSTDWVALGLRNAIDAGKVPGPRMLVSNYAVGSTGGHADQDPIPPHKLPLAGPLQGVCNGPEECRAAVRYQIKYGANVIKFMPSGGVLSLSDPVDAPELSQDEMNAVIGESHAWGRKVAAHAHGDKAAKMAVAAGVDSIEHGSFIEDDTLRAMKAKNVYLVPTISAIAHVEEKIGTFPPVIAEKGRAAAAHLRQTFRHAVQIGVPIALGTDAGVGAAGSNAREFRYMVENGLTPAQALLAGTANAARLLGTFDRVGTLEAGKLADVVAVPGNPIADITVTERPLFVMKDGVVVRRDAVR
modifications: exemplary polypeptide
B2: 277 (protein)
chain: B1 chain with A192L, A358H
modifications: exemplary polypeptide
B3: 263 (protein)
chain: B1 chain with Y105N, A358H
modifications: exemplary polypeptide
B4: 100 (protein)
chain: B1 chain with F109L, A358H
modifications: exemplary polypeptide
B5: 250 (protein)
chain: B1 chain with A358K
modifications: exemplary polypeptide
B6: 86 (protein)
chain: B1 chain with A307T, A358H
modifications: exemplary polypeptide
B7: 264 (protein)
chain: B1 chain with Y105R, A358H
modifications: exemplary polypeptide
B8: 298 (protein)
chain: B1 chain with G354A, G356Y, A358H
modifications: exemplary polypeptide
B9: 314 (protein)
chain: B1 chain with I308V, L333I, A358H
modifications: exemplary polypeptide
B10: 251 (protein)
chain: B1 chain with A358N
modifications: exemplary polypeptide
B11: 257 (protein)
chain: B1 chain with S284D, A329S, A358H
modifications: exemplary polypeptide
B12: 276 (protein)
chain: B1 chain with G176S, A358H
modifications: exemplary polypeptide
B13: 266 (protein)
chain: B1 chain with D107R, A358H
modifications: exemplary polypeptide
B14: 265 (protein)
chain: B1 chain with G106P, A358H
modifications: exemplary polypeptide
B15: 254 (protein)
chain: B1 chain with D110K, K188D, A358H
modifications: exemplary polypeptide
B16: 271 (protein)
chain: B1 chain with M113R, A358H
modifications: exemplary polypeptide
B17: 279 (protein)
chain: B1 chain with A192V, A358H
modifications: exemplary polypeptide
B18: 293 (protein)
chain: B1 chain with I308V, A329V, A358H
modifications: exemplary polypeptide
B19: 90 (protein)
chain: B1 chain with G354A, A358H
modifications: exemplary polypeptide
B20: 252 (protein)
chain: B1 chain with A358H, N361E
modifications: exemplary polypeptide
B21: 92 (protein)
chain: B1 chain with F318M, A358H
modifications: exemplary polypeptide
B22: 258 (protein)
chain: B1 chain with S284D, A329T, A358H
modifications: exemplary polypeptide
B23: 99 (protein)
chain: B1 chain with F109V, A358H
modifications: exemplary polypeptide
B24: 302 (protein)
chain: B1 chain with G354P, V355L, A358H
modifications: exemplary polypeptide
B25: 283 (protein)
chain: B1 chain with V235D, A358H
modifications: exemplary polypeptide
B26: 278 (protein)
chain: B1 chain with A192M, A358H
modifications: exemplary polypeptide
B27: 93 (protein)
chain: B1 chain with A329G, A358H
modifications: exemplary polypeptide
B28: 65 (protein)
chain: B1 chain with A358H, N361W
modifications: exemplary polypeptide

Test: OTA detoxification activity assay (specific activity, fluorescence reduction ex/em 390/450 nm)
Type: biochemical
Settings: pH 6.0; SEQ ID NO: 1 = 100%
Description: To determine the specific activity of recombinant target polypeptides produced e.g. as described in Example 2 above in units per liter (U/L), ochratoxin A (OTA) detoxification activity assays were performed. One unit is defined as the amount of enzyme necessary for degradation of 1 μmol or OTA in 1 min when using a starting OTA concentration of […].
OTA detoxification activity assays were set up in a final volume of the reaction mixture of […], containing the recombinant enzyme preparation (preferably diluted to yield a volumetric activity of 1-10 mU/L), and 200 ng/mL OTA in 100 mM sodium phosphate buffer.
Specific activities were determined at pH 6.0 and pH 7.5. As soon as all components of the reaction mixture were mixed, OTA degradation was followed at 37° C. on a fluorescence spectrophotometer (BioTek Synergy H1 MFD Multimode microplate reader) by following the reduction in fluorescence at ex/em 390 nm/450 nm. For work performed at pH 6.0 and 7.5, a 100 mM sodium phosphate buffer was used.
For calculation of the specific activity, the initial linear part of the recorded fluorescence reduction curve was used. In addition to the fluorescence-based method described above, OTA degradation was also determined by using the HPLC-MS method as described by Dellafiora et al. 2020, Toxins 12, 258, essentially confirming the fluorescence-based results. Genes encoding either of the indicated SEQ ID NOs are expressed as described herein and the specific activities for the obtained polypeptide preparation are exemplarily shown in Table 8. Analogously, enzymatic activities using either ochratoxin B, C or TA as substrate or can be found.

Molecule	Specific OTA detoxification activities in % compared to the enzyme of SEQ ID NO: 1, pH 6.0 [%]
B1	21
B2	6
B3	19
B4	43
B5	17
B6	4
B7	46
B8	15
B9	71
B10	53
B11	34
B12	13
B13	11
B14	20
B15	32
B16	6
B17	23
B18	16
B19	99
B20	32
B21	37
B22	29
B23	52
B24	26
B25	29
B26	32
B27	20
B28	4

Same assay, conditions: pH 7.5; SEQ ID NO: 1 = 100%

Molecule	Specific OTA detoxification activities in % compared to the enzyme of SEQ ID NO: 1, pH 7.5 [%]
B1	26
B2	14
B3	11
B4	28
B5	21
B6	9
B7	44
B8	17
B9	33
B10	33
B11	15
B12	30
B13	22
B14	11
B15	15
B16	23
B17	36
B18	18
B19	162
B20	13
B21	52
B22	25
B23	58
B24	23
B25	23
B26	19
B27	17
B28	10
